From patent US20260345804 (published 2026)
Substitutions are numbered along the chain they refer to.

T1: human IL2v G4S avi his (P1AG0879) (human)
T1 chain: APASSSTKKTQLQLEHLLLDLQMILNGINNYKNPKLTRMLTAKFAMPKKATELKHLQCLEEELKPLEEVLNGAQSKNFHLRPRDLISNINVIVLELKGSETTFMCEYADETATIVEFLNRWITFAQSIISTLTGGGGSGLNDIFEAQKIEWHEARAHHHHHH

B1: P1AF7506 OA MT204 IgG PG LALA (antibody, V domains shown)
VH: EVQLVESGGGLVQPGGSLRLSCAASGFTFSSYTLAWVRQAPGKGLEWVAAIDSSSYTYSPDTVRGRFTISRDNAKNSLYLQMNSLRAEDTAVYYCARDSNWDALDYWGQGTTVTVSS
VL: DIQMTQSPSSLSASVGDRVTITCKASQNVGTNVGWYQQKPGKAPKALIYSASFRYSGVPSRFSGSGSGTDFTLTISSLQPEDFATYYCQQYYTYPYTFGGGTKVEIKR
B2: P1AH2052 MT204_VL1b-combo VH2 & VH6 IgG PG LALA (antibody, V domains shown)
VH: B1 VH with R64K, A74S, S77T
VL: B1 VL with K24R, N28G, A46L, R54L
B3: P1AH2051 MT204_VL1a-combo VH2 & VH6 IgG PG LALA (antibody, V domains shown)
VH: B1 VH with R64K, A74S, S77T
VL: B1 VL with K24R, N28G, R54L
B4: P1AH2050 MT204_VL1-combo VH2 & VH6 IgG PG LALA (antibody, V domains shown)
VH: B1 VH with R64K, A74S, S77T
VL: B1 VL with K24R, N28G
B5: P1AH4161 PD1-376_VL2_VH1_2_3_4 (antibody, V domains shown)
VH: EVQLVESGGGLVQPGGSLRLSCAASGFTFSSYAMSWVRQAPGKGLEWVSAISGGGRDIYYPDSVKGRFTISRDNSKNTLYLQMNSLRAEDTAVYYCVLLTGRVYFALDSWGQGTLVTVSS
VL: DIVMTQSPDSLAVSLGERATINCKASESVDTSDNSFIHWYQQKPGQSPKLLIYRASTLESGVPDRFSGSGSGTDFTLTISSLQAEDVAVYYCQQNYDVPWTFGQGTKVEIKR
B6: P1AH4159 PD1-376_VL2_7_VH4 (antibody, V domains shown)
VH: B5 VH with V5L, T28S, A33T
VL: B5 VL with L58Q
B7: P1AH4157 PD1-376_VL2_VH4 (antibody, V domains shown)
VH: B5 VH with V5L, T28S, A33T
VL: B5 VL
B8: P1AH4158 PD1-376_VL7_VH4 (antibody, V domains shown)
VH: B5 VH with V5L, T28S, A33T
VL: B5 VL with A55E, L58Q
B9: P1AH4160 PD1-376_VL7_VH1_2_4 (antibody, V domains shown)
VH: B5 VH with A33T
VL: B5 VL with A55E, L58Q
B10: P1AA6888 one-shot humanized PD1-0103 (antibody)
chain 1: not shown
chain 2: DIVMTQSPDSLAVSLGERATINCKASESVDTSDNSFIHWYQQKPGQSPKLLIYRSSTLESGVPDRFSGSGSGTDFTLTISSLQAEDVAVYYCQQNYDVPWTFGQGTKVEIKRTVAAPSVFIFPPSDEQLKSGTASVVCLLNNFYPREAKVQWKVDNALQSGNSQESVTEQDSKDSTYSLSSTLTLSKADYEKHKVYACEVTHQGLSSPVTKSFNRGEC
B11: P1AI1648 PD1-376_VL2_VH4_I58L_D62E (antibody, V domains shown)
VH: B5 VH with V5L, T28S, A33T, I58L, D62E
VL: B5 VL
B12: P1AI1650 PD1-376_VL2_VH4_I58T_P61A (antibody, V domains shown)
VH: B5 VH with V5L, T28S, A33T, I58T, P61A
VL: B5 VL
B13: P1AI1649 PD1-376_VL2_VH4_I58T (antibody, V domains shown)
VH: B5 VH with V5L, T28S, A33T, I58T
VL: B5 VL
B14: P1AI1652 PD1-376_VL2_VH4_Y60F_D62E (antibody, V domains shown)
VH: B5 VH with V5L, T28S, A33T, Y60F, D62E
VL: B5 VL
B15: P1AI1651 PD1-376_VL2_VH4_P61A (antibody, V domains shown)
VH: B5 VH with V5L, T28S, A33T, P61A
VL: B5 VL
B16: P1AG9606 PD1 IgG-IL2v aIL2 MT204 scFv-PQARK (antibody)
chain 1: EVQLLESGGGLVQPGGSLRLSCAASGFSFSSYTMSWVRQAPGKGLEWVATISGGGRDIYYPDSVKGRFTISRDNSKNTLYLQMNSLRAEDTAVYYCVLLTGRVYFALDSWGQGTLVTVSSASTKGPSVFPLAPSSKSTSGGTAALGCLVKDYFPEPVTVSWNSGALTSGVHTFPAVLQSSGLYSLSSVVTVPSSSLGTQTYICNVNHKPSNTKVDKKVEPKSCDKTHTCPPCPAPEAAGGPSVFLFPPKPKDTLMISRTPEVTCVVVDVSHEDPEVKFNWYVDGVEVHNAKTKPREEQYNSTYRVVSVLTVLHQDWLNGKEYKCKVSNKALGAPIEKTISKAKGQPREPQVCTLPPSRDELTKNQVSLSCAVKGFYPSDIAVEWESNGQPENNYKTTPPVLDSDGSFFLVSKLTVDKSRWQQGNVFSCSVMHEALHNHYTQKSLSLSPG
chain 2: B10 chain 2
modifications: PD1-binding arm; immunoconjugate, knob chain SEQ59 carries masked IL2v
B17: P1AI0357 PD1-1030-VH_I58T (antibody, V domains shown)
VH: B5 VH with V5L, T28S, A33T, S49A, A50T, I58T
VL: B5 VL with A55S
B18: P1AI0356 PD1-1030-VH_I58L_D62E (antibody, V domains shown)
VH: B5 VH with V5L, T28S, A33T, S49A, A50T, I58L, D62E
VL: B5 VL with A55S
B19: P1AI0360 PD1-1030-VH_Y60F_D62E (antibody, V domains shown)
VH: B5 VH with V5L, T28S, A33T, S49A, A50T, Y60F, D62E
VL: B5 VL with A55S
B20: P1AI0358 PD1-1030-VH_I58T_P61A (antibody, V domains shown)
VH: B5 VH with V5L, T28S, A33T, S49A, A50T, I58T, P61A
VL: B5 VL with A55S
B21: P1AI0359 PD1-1030-VH_P61A (antibody, V domains shown)
VH: B5 VH with V5L, T28S, A33T, S49A, A50T, P61A
VL: B5 VL with A55S

Target: T1, human IL2v G4S avi his (P1AG0879)
Test: SPR, 25C

Row | Kd | Binder
1 | 0.27 nM | B1
2 | 0.995 nM | B2
3 | 0.101 nM | B3
4 | 0.427 nM | B4

target: huPD1-ECD_Fc-knob/hole (P1AD9704) (human); test: SPR, 25C

Row | Kd | Binder
5 | 0.4 nM | B5
6 | 0.2 nM | B6
7 | 0.2 nM | B7
8 | 1.5 nM | B8
9 | 1.2 nM | B9
10 | 0.2 nM | B10

target: huPD1-ECD_Fc-knob/hole (P1AD9704) (human); test: SPR, 25C; remark: another data set of the same source

Row | Kd | Binder
11 | 0.144 nM | B11
12 | 0.127 nM | B12
13 | 0.126 nM | B7
14 | 0.111 nM | B13
15 | 0.162 nM | B14
16 | 0.114 nM | B15
17 | 0.19 nM | B16

target: huPD1-ECD_Fc-knob/hole (P1AD9704) (human); test: SPR, 25C; remark: another data set of the same source

Row | Kd | Binder
18 | 0.2 nM | B17
19 | 0.2 nM | B18
20 | 0.3 nM | B19
21 | 0.3 nM | B20
22 | 0.2 nM | B21
23 | 0.3 nM | B10
